Reference: patent US12134663B2, “Cationic peptides for activating Lck” (Interk Peptide Therapeutics Limited, priority 2018, dated 2024)
“Also recorded” adds a separate entry of the source. Where no end group is shown, it is not given here. [ ]: non-standard residue; d: D form. 2Adod = 2-amino-dodecanoic acid; Orn = NCCC[C@H](N)C(=O)O

Each substance was assayed against T1, Lck (Homo sapiens, UniProt P06239) (assay: Lck Activity above control (1 µM)). Conditions: not given.
T1 construct: purchased Eurofins Pharma Discovery Services UK Limited
Procedure: Table printed on a drawing sheet, FIG. 4
(§1) Head of the field: Lck Activity above control (1 µM)
First copying reader's note: The first column holds the sequence together with the SEQ ID NO and peptide code in one cell; activity was measured at 1 µM peptide.
(§2) Where the first naming reader finds the target: head: Lck Activity above control (1 µM)
“RSKAK-RRR (SEQ ID NO: 28, IK50300) (RSKAKRRR)” was tested, and the “Lck Activity above control (1 µM)” value was 0%. For RSKAKNPLY (SEQ ID NO: 30, IK94000), the “Lck Activity above control (1 µM)” value was 0%. With RSKAKNPLYR (SEQ ID NO: 31, IK14000) the “Lck Activity above control (1 µM)” value was 0%. “RSKAKNPLY-RRRRRRRRR-GPLG (SEQ ID NO: 41, IK148MP9) (RSKAKNPLYRRRRRRRRRGPLG)” was tested, and the “Lck Activity above control (1 µM)” value was 320%. “IAGQ-RSKAKNPLY-RRRRRRRRR (SEQ ID NO: 40, IKM14800) (IAGQRSKAKNPLYRRRRRRRRR)” was tested, and the “Lck Activity above control (1 µM)” value was 454%. “RSKAK-RRRR (SEQ ID NO: 29, IK50400) (RSKAKRRRR)” was tested, and the “Lck Activity above control (1 µM)” value was 0%. In the case of “RSKAKNPLY-KKKKKKKKK (SEQ ID NO: 44, IK94K90)”, the “Lck Activity above control (1 µM)” value was 49%. In the case of “RSKAKNPLY-RRRR (SEQ ID NO: 32, IK14300) (RSKAKNPLYRRRR)”, the “Lck Activity above control (1 µM)” value was 0%. “RSKAK-R (SEQ ID NO: 26, IK50100) (RSKAKR)” was tested, and the “Lck Activity above control (1 µM)” value was 0%. In the case of “r s k a k n p l y - r r r r r r r r r (SEQ ID NO: 129, IKD14800) ([dR][dS][dK][dA][dK][dN][dP][dL][dY][dR][dR][dR][dR][dR][dR][dR][dR][dR])”, the “Lck Activity above control (1 µM)” value was 490%.

Each substance was assayed against T1, Lck (assay: In vitro Lck activation kinase study (Eurofins)). Conditions: peptide 1 μM where stated.
Type: biochemical
Procedure: The ability of polypeptides of the present invention to activate Lck was examined in vitro. Lck is member of the Src family of tyrosine kinases. […] All results in are percentage Lck activity relative to control (100%).
Test polypeptides were assessed at a concentration of 1.0 μM.
The ability of polypeptides of the present invention to activate Src family kinases was examined in vitro. Kinase activation studies utilising peptides were carried out as described in Example 1, and all kinase activity values are shown as percentage relative to control.
The ability of polypeptides comprising both lysine and arginine to activate Lck in vitro was examined. Lck activation studies utilising peptides were carried out as described in Example 1, and all kinase activity values are shown as percentage relative to control.
Target sequence in this assay (P06239 whole entry): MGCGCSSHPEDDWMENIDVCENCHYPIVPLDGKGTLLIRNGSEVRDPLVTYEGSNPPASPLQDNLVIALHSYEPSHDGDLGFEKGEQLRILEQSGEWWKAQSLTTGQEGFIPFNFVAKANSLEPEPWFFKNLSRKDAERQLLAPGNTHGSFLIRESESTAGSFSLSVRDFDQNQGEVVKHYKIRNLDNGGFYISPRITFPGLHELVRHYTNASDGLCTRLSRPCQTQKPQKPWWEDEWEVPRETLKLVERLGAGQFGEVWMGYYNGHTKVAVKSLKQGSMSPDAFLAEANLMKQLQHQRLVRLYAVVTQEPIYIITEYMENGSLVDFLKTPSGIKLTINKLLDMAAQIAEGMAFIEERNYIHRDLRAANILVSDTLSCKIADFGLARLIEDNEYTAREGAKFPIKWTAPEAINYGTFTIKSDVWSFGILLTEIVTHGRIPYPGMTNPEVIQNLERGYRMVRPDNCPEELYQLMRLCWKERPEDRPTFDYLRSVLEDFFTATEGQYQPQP
For “Branched < RSKAKNPLY-RRRRRRRRR-HHHHHHHHHH (RSKAKNPLYRRRRRRRRRHHHHHHHHHH; also: branched (1)..(28)) [Br IK14810]”, the “Lck activation (in words)” value was “Substantially increased Lck activity”. With “[Orn][Orn][Orn][Orn][Orn][Orn][Orn][Orn][Orn][Orn] [10 Orn]” the “Lck activation (in words)” value was “Negligible Lck activity”. For RRRRRR [SEQ ID NO: 3], the “Lck activation (in words)” value was “do not activate Lck”. With RRRRR [SEQ ID NO: 2] the “Lck activation (in words)” value was “do not activate Lck”. HHHHHHHHHH [10His] was tested, and the “Lck activation (in words)” value was “No increase in Lck activity; also recorded: did not induce any activation of Lck”. In the case of RVKVKVVVV [IK95000], the “Lck activation (in words)” value was “substantial increases in Lck activity”. “RSKAKNPLY-RRRR (RSKAKNPLYRRRR) [SEQ ID NO: 32]” was tested, and the “Lck activation (in words)” value was “no Lck activation”. In the case of RRRR [SEQ ID NO: 119], the “Lck activation (in words)” value was “do not activate Lck”. With RSKAK [IK5000] the “Lck activation (in words)” value was “no or negligible Lck activation”. With DDDDDDDDD [IKD9] the “Lck activation (in words)” value was “does not activate Lck”.

Same assay, conditions: peptide 1 μM where stated; listed as DDDDDDDDD
For DDDDDDDDD [IKD9], the “Lck activation (in words)” value was “does not increase the activity of Lck”.

Same assay, conditions: peptide 1 μM; relative to control
In the case of “RVKVK-RRRRRRRRR-HHHHHHHHHH (RVKVKRRRRRRRRRHHHHHHHHHH) [IK50810]”, the “increase in Lck activity” value was 778%.

What follows are substances tested against T1, Lck (assay: Lck Activity above control (1µM)). Conditions: not given.
Procedure: First copying reader's note: The Peptide column holds the sequence together with the SEQ ID NO and the peptide code; the activity was measured at 1µM peptide, as the head states.
With “RSKAKNPLYR-RRRRRRRR-(2Adod)4-NH2 (SEQ ID NO: 65, IK14804) (RSKAKNPLYRRRRRRRRR-{2Adod-2Adod-2Adod-2Adod-NH2})” the “Lck Activity above control (1 µM)” value was 468%. “KKKKKKKK-HHHHHHHHHH (SEQ ID NO: 18, IK00K10)” was tested, and the “Lck Activity above control (1 µM)” value was 70%. With “DSEAENPLY-DDDDDDDDD-NH2 (SEQ ID NO: 23, IKDE800) (DSEAENPLYDDDDDDDDD-NH2)” the “Lck Activity above control (1 µM)” value was 0%. “RRRRRRRRRRRRRR-OH (SEQ ID NO: 11, IK014OH)” was tested, and the “Lck Activity above control (1 µM)” value was 156%. In the case of “HHH-RRRRRRRRR-HHH (SEQ ID NO: 16, IK03930) (HHHRRRRRRRRRHHH)”, the “Lck Activity above control (1 µM)” value was 386%. “RVKVKVVVVR-RRRRRRRR-(2Adod)4-NH2 (SEQ ID NO: 66, IK15804) (RVKVKVVVVRRRRRRRRR-{2Adod-2Adod-2Adod-2Adod-NH2})” was tested, and the “Lck Activity above control (1 µM)” value was 335%. For RRRR (SEQ ID NO: 1, IK00400), the “Lck Activity above control (1 µM)” value was 0%. For RRRRRRRRRRRRRR (SEQ ID NO: 9, IK01400), the “Lck Activity above control (1 µM)” value was 351%. With RRRRRRRRRR (SEQ ID NO: 7, IK00100) the “Lck Activity above control (1 µM)” value was 389%. For “HHHHH-RRRRRRRRR-HHHHH (SEQ ID NO: 17, IK05950) (HHHHHRRRRRRRRRHHHHH)”, the “Lck Activity above control (1 µM)” value was 286%. For RRRRR (SEQ ID NO: 2, IK00500), the “Lck Activity above control (1 µM)” value was 0%. HHHHHHHHHH (SEQ ID NO: 14, 10His) was tested, and the “Lck Activity above control (1 µM)” value was 0%. With DDDDDDDDD-NH2 (SEQ ID NO: 21, IKD9) the “Lck Activity above control (1 µM)” value was 0%. “OrnOrnOrnOrnOrnOrnOrnOrnOrnOrn (SEQ ID NO: 15, 10 Orn)” was tested, and the “Lck Activity above control (1 µM)” value was 13%. For RRRRRRRR (SEQ ID NO: 4, IK00800), the “Lck Activity above control (1 µM)” value was 126%. “RSKAKNPLY-RRRRRRRRR-NH2 (SEQ ID NO: 24, IK14800) (RSKAKNPLYRRRRRRRRR-NH2)” was tested, and the “Lck Activity above control (1 µM)” value was 377%. “RRRRRRRR-HHHHHHHHHH (SEQ ID NO: 19, IK00810) (RRRRRRRRHHHHHHHHHH)” was tested, and the “Lck Activity above control (1 µM)” value was 259%. With “RRRRRRRRRRRRRRRRRRRR (SEQ ID NO: 12, IK00200) (RRRRRRRRRRRRRRRRRRRRR)” the “Lck Activity above control (1 µM)” value was 279%. With RRRRRR (SEQ ID NO: 3, IK00600) the “Lck Activity above control (1 µM)” value was 0%. For RRRRRRRRRRRR (SEQ ID NO: 8, IK01200), the “Lck Activity above control (1 µM)” value was 401%.

Biological target: T1, Lck
Experiment: Lck Activity above control (1 µM)
Conditions: not given
Remark: another data set of the same source
Procedure: Table printed on a drawing sheet, FIG. 5
as §1
First copying reader's note: The Peptide column holds the sequence together with its SEQ ID NO and IK code in brackets; the activity was measured at 1 µM peptide and the % sign stands in the cells.
as §2
“HHHHH-RSKAKNPLY-RRRRRRRRR-HHHHH (SEQ ID NO: 53, IK51455) (HHHHHRSKAKNPLYRRRRRRRRRHHHHH)” was tested, and the “Lck Activity above control (1 µM)” value was 685%. “Branched < RSKAKNPLY-RRRRRRRRR-HHHHHHHHHH (SEQ ID NO: 48, Br IK14810) (RSKAKNPLYRRRRRRRRRHHHHHHHHHH; also: branched (1)..(28))” was tested, and the “Lck Activity above control (1 µM)” value was 596%. With “RSKAKNPLY-RKRKRKRKRK (SEQ ID NO: 54, IK94RK0) (RSKAKNPLYRKRKRKRKRK)” the “Lck Activity above control (1 µM)” value was 456%. With “RRRRRRRR-RVKVKVVVV-R (SEQ ID NO: 59, IK80150) (RRRRRRRRRVKVKVVVVR)” the “Lck Activity above control (1 µM)” value was 520%. For “RVKVKVVVV-RRRRRRRRR-HHHHHHHHHH (SEQ ID NO: 60, IK50810) (RVKVKVVVVRRRRRRRRRHHHHHHHHHH)”, the “Lck Activity above control (1 µM)” value was 778%. In the case of “RVKVKVVVV-RRRRRRRR (SEQ ID NO: 57, IK15700) (RVKVKVVVVRRRRRRRR)”, the “Lck Activity above control (1 µM)” value was 512%. For RVKVKVVVV (SEQ ID NO: 55, IK95000), the “Lck Activity above control (1 µM)” value was 518%. In the case of “RVKVKVVVV-RRRRRRRRR (SEQ ID NO: 58, IK15800) (RVKVKVVVVRRRRRRRRR)”, the “Lck Activity above control (1 µM)” value was 479%. For “KEKLKNPLFK-RRRRRRRR-HHHHHHHHHH (SEQ ID NO: 64, IKB2810) (KEKLKNPLFKRRRRRRRRHHHHHHHHHH)”, the “Lck Activity above control (1 µM)” value was 379%. For “RVKVKVVVV-RHRHRHRHRHRHRHRH-HH (SEQ ID NO: 61, IK52820) (RVKVKVVVVRHRHRHRHRHRHRHRHHH)”, the “Lck Activity above control (1 µM)” value was 408%. In the case of “RVKVKVVVV-RRRRR (SEQ ID NO: 56, IK15400) (RVKVKVVVVRRRRR)”, the “Lck Activity above control (1 µM)” value was 382%. “RSKAKNPLY-RRRRRRRRR-HHHHHHHHHHHH (SEQ ID NO: 49, IK14820) (RSKAKNPLYRRRRRRRRRHHHHHHHHHHHH)” was tested, and the “Lck Activity above control (1 µM)” value was 556%. In the case of “RRRRRRRR-HHHHHHHHHH-RSKAKNPLYR (SEQ ID NO: 52, IK81140) (RRRRRRRRHHHHHHHHHHRSKAKNPLYR)”, the “Lck Activity above control (1 µM)” value was 567%. With “HHHHH-RRRRRRRRR-HHHHH-RSKAKNPLYR (SEQ ID NO: 51, IK59514) (HHHHHRRRRRRRRRHHHHHRSKAKNPLYR)” the “Lck Activity above control (1 µM)” value was 441%. In the case of “RSKAKNPLY-RRRRRRRRR-HHHHH (SEQ ID NO: 46, IK14510) (RSKAKNPLYRRRRRRRRRHHHHH)”, the “Lck Activity above control (1 µM)” value was 524%.
